Assay [1] has as its target recombinant Factor VIII (as described in Zollner et al 2013) (Homo sapiens (Human)) (UniProt P00451). In words: SPR, anti-His capture. (In general: Surface plasmon resonance follows binding to a sensor surface in real time, without labels.)
Assay [2] has as its target T1, recombinant Factor VIII (as described in Zollner et al 2013) (Homo sapiens (Human), UniProt P00451 20-2351).
T1 construct: also called FVIII
T1 sequence: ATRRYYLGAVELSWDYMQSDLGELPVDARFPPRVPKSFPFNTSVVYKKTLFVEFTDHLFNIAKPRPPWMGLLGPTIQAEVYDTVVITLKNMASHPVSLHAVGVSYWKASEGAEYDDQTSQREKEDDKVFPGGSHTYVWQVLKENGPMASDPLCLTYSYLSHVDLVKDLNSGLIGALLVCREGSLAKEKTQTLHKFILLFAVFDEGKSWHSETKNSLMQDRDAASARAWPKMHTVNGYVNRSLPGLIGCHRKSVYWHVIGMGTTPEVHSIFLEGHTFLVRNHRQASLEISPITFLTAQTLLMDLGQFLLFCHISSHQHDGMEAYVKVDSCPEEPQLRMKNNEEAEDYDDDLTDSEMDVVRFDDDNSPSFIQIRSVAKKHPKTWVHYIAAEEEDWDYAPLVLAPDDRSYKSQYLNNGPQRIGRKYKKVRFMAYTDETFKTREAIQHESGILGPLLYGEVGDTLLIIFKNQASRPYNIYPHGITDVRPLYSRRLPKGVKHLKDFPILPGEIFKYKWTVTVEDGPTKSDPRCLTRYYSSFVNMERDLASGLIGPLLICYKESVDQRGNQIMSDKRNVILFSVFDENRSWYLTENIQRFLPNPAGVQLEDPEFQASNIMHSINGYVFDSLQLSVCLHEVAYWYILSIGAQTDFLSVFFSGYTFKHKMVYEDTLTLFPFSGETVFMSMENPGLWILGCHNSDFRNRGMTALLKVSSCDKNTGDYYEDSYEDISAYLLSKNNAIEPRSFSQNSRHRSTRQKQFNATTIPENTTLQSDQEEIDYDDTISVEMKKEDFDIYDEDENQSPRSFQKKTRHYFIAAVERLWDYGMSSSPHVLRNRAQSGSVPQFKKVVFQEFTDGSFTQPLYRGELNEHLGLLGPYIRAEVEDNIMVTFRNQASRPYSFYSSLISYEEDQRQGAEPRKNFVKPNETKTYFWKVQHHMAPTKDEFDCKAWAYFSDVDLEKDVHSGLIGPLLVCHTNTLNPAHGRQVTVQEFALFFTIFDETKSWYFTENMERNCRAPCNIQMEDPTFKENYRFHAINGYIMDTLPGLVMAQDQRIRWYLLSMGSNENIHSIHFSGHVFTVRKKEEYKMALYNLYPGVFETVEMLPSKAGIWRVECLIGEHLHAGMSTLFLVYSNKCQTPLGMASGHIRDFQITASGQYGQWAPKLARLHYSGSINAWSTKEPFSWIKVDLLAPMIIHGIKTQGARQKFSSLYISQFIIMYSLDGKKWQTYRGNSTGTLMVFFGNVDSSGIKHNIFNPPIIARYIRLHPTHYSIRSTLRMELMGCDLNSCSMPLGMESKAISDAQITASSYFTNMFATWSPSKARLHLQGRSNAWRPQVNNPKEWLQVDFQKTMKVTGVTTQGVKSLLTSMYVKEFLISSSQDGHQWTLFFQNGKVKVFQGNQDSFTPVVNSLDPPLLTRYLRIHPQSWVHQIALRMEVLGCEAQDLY
The experiment in a line: SPR, anti-His capture. On the procedure: Binding kinetics were investigated by surface plasmon resonance using a Biacore 4000 biosensor at 37° C. Each mutant was captured from cell culture medium to a density of 40-150RU on a CM-5 sensor chip pre-immobilised with anti-His antibody (14,000 RU). In an initial screening study, FVIII was injected over the captured mutants for 5 minutes at 1 nM and dissociation monitored for 5 minutes.
All sensorgrams were double referenced by subtraction of signals from a reference spot (containing only immobilised anti His antibody) and from a blank injection. Binding kinetics were determined by fitting the double referenced sensorgrams to a 1:1 kinetic model.

As a reminder, the Kd is a measure of binding affinity in units of concentration. Broadly, the koff is a measure of how fast the partners let go of each other. The term kon denotes the second-order rate constant of association.

Where “and” joins values, the source holds several entries; their conditions need not be identical. Identical values can stand only once.

Take “Hu-vWF[764-1270]-8His dupS764/S764P/S766I”: in assay [1], the Kd is 255 pM and 199 pM; the koff was 0.00159 s⁻¹ and 0.0025 s⁻¹; the kon is 6.23e+06 M⁻¹ s⁻¹ and 1.25e+07 M⁻¹ s⁻¹.

B1: Hu-vWF[764-1270]-8His S764P-S766I (other)
chain: PLICRPPMVKLVCPADNLRAEGLECTKTCQNYDLECMSMGCVSGCLCPPGMVRHENRCVALERCPCFHQGKEYAPGETVKIGCNTCVCRDRKWNCTDHVCDATCSTIGMAHYLTFDGLKYLFPGECQYVLVQDYCGSNPGTFRILVGNKGCSHPSVKCKKRVTILVEGGEIELFDGEVNVKRPMKDETHFEVVESGRYIILLLGKALSVVWDRHLSISVVLKQTYQEKVCGLCGNFDGIQNNDLTSSNLQVEEDPVDFGNSWKVSSQCADTRKVPLDSSPATCHNNIMKQTMVDSSCRILTSDVFQDCNKLVDPEPYLDVCIYDTCSCESIGDCACFCDTIAAYAHVCAQHGKVVTWRTATLCPQSCEERNLRENGYECEWRYNSCAPACQVTCQHPEPLACPVQCVEGCHAHCPPGKILDELLQTCVDPEDCPVCEVAGRRFASGKKVTLNPSDPEHCQICHCDVVNLTCEACQEPGGLVVPPTDAPVSPTTLYVEDISEPPLHDFHHHHHHHH
In the case of B1, in assay [2], the “fold decrease in off-rate vs wild type” value stood at 22 fold and the “fold increase in affinity vs wild type” value is 30 fold.

Source of the values: US20170152300A1 (CSL, published 2017).
